Experimental data as given in PMC9676403, “Crystal structure of the collagen prolyl 4-hydroxylase (C-P4H) catalytic domain complexed with PDI: Toward a model of the C-P4H α2β2 tetramer” (The Journal of Biological Chemistry, 2022).
Values belong to the binder of their own block, whether it stands above or below them.

B3: α-subunit of mature human C-P4H-II (enzyme, UniProt O15460-1 22-535, looked up)
chain: EFFTSIGHMTDLIYAEKELVQSLKEYILVEEAKLSKIKSWANKMEALTSKSAADAEGYLAHPVNAYKLVKRLNTDWPALEDLVLQDSAAGFIANLSVQRQFFPTDEDEIGAAKALMRLQDTYRLDPGTISRGELPGTKYQAMLSVDDCFGMGRSAYNEGDYYHTVLWMEQVLKQLDAGEEATTTKSQVLDYLSYAVFQLGDLHRALELTRRLLSLDPSHERAGGNLRYFEQLLEEEREKTLTNQTEAELATPEGIYERPVDYLPERDVYESLCRGEGVKLTPRRQKRLFCRYHHGNRAPQLLIAPFKEEDEWDSPHIVRYYDVMSDEEIERIKEIAKPKLARATVRDPKTGVLTVASYRVSKSSWLEEDDDPVVARVNRRMQHITGLTVKTAELLQVANYGVGGQYEPHFDFSRNDERDTFKHLGTGNRVATFLNYMSDVEAGGATVFPDLGAAIWPKKGTAVFWYNLLRSGEGDYRTRHAACPVLVGCKWVSNKWFHERGQEFLRPCGSTEVD
notes: collagen prolyl 4-hydroxylase α(II) subunit, human, isoform-IIb splice variant (exon 12b); the complex is called mature C-P4H-II; codon-optimized gene; also called α(II); Hs-α(II); source: E. coli K12, polycistronic CyDisCo plasmid, coexpressed with β/PDI and yeast Erv1; purified (Talon IMAC, HiTrap Q, Superdex 200); not shown: His6, N-terminal, kept
B4: protein disulfide isomerase, the β-subunit of C-P4H (enzyme)
chain: not shown
notes: protein disulfide isomerase, human, called the intact or complete β/PDI subunit, without a tag; codon-optimized gene; the crystal model starts at Glu21; Made in the E. coli cytoplasm, so probably without the signal peptide (my surmise); also called PDI; β/PDI subunit; source: E. coli K12, polycistronic CyDisCo plasmid, coexpressed with the α-subunit and yeast Erv1; co-purified with the His-tagged …

Assays:
[1] = target: B4; assay: co-purification; His6-tagged α-subunit coexpressed with untagged β/PDI in E. coli (CyDisCo); Talon IMAC from the lysate, HiTrap Q, Superdex 200, 4 °C, Tris pH 7.8; subunits found in the purified sample by SDS-PAGE and MS; settings: partners not purified
[2] = target: B4; assay: SEC-MALS; purified, frozen-thawed co-expressed complex on Superdex 200 Increase 10/300 GL in SEC buffer (50 mM Tris, pH 7.8, 50 mM NaCl, 100 mM glycine); settings: both partners purified
[3] = target: the molecule itself; assay: as above
[4] = target: B3; assay: co-purification; His6-tagged α-subunit coexpressed with untagged β/PDI in E. coli (CyDisCo); Talon IMAC from the lysate, HiTrap Q, Superdex 200, 4 °C, Tris pH 7.8; subunits found in the purified sample by SDS-PAGE and MS; settings: partners not purified

binding result [1]: binds
B1: α-subunit of human C-P4H-II lacking the N-terminal dimerization domain, construct C-P4H-II-Δ140 (domain or fragment, UniProt O15460-1 141-535, looked up)
chain: DTYRLDPGTISRGELPGTKYQAMLSVDDCFGMGRSAYNEGDYYHTVLWMEQVLKQLDAGEEATTTKSQVLDYLSYAVFQLGDLHRALELTRRLLSLDPSHERAGGNLRYFEQLLEEEREKTLTNQTEAELATPEGIYERPVDYLPERDVYESLCRGEGVKLTPRRQKRLFCRYHHGNRAPQLLIAPFKEEDEWDSPHIVRYYDVMSDEEIERIKEIAKPKLARATVRDPKTGVLTVASYRVSKSSWLEEDDDPVVARVNRRMQHITGLTVKTAELLQVANYGVGGQYEPHFDFSRNDERDTFKHLGTGNRVATFLNYMSDVEAGGATVFPDLGAAIWPKKGTAVFWYNLLRSGEGDYRTRHAACPVLVGCKWVSNKWFHERGQEFLRPCGSTEVD
notes: collagen prolyl 4-hydroxylase α(II) subunit, human, isoform-IIb splice variant (exon 12b), first 140 residues deleted, starts at Asp141; holds the PSB and CAT domains; codon-optimized gene; also called PSB and CAT; Hs-α(II) from D141; source: E. coli K12, polycistronic CyDisCo plasmid, coexpressed with β/PDI and yeast Erv1; purified (Talon IMAC, HiTrap Q, Superdex 200); not shown: His6, …

binding result [2]: binds
B2: α-subunit of human C-P4H-II truncated to the catalytic (CAT) domain, construct C-P4H-II-Δ281 (domain or fragment, UniProt O15460-1 282-535, looked up)
chain: DYLPERDVYESLCRGEGVKLTPRRQKRLFCRYHHGNRAPQLLIAPFKEEDEWDSPHIVRYYDVMSDEEIERIKEIAKPKLARATVRDPKTGVLTVASYRVSKSSWLEEDDDPVVARVNRRMQHITGLTVKTAELLQVANYGVGGQYEPHFDFSRNDERDTFKHLGTGNRVATFLNYMSDVEAGGATVFPDLGAAIWPKKGTAVFWYNLLRSGEGDYRTRHAACPVLVGCKWVSNKWFHERGQEFLRPCGSTEVD
notes: residues 534-535 are named as the C-terminal residues; codon-optimized gene; Linked to PDI in the crystal by intersubunit disulfide bridges (Cys311-Cys397, Cys529-Cys53); also called Hs-α(II) from D282; source: E. coli K12, polycistronic CyDisCo plasmid, coexpressed with β/PDI and yeast Erv1; purified (Talon IMAC, HiTrap Q, Superdex 200)

Binder: B3
binding result [3]: binds

Binder: B4
binding result [4]: binds
